What was measured:
[1] = target: T1, SARS-CoV-2 spike, Delta variant (B.1.617.2), on virus or pseudotyped particles (SARS-CoV-2); assay: cell-based or functional assay
[2] = target: T2, SARS-CoV-2 Spike ectodomain (tri-S), Wuhan (SARS-CoV-2, UniProt P0DTC2 14-1208); assay: ELISA; set-up: unit not given beside the values
[3] = target: SARS-CoV-2 RBD (P.1) domain (SARS-CoV-2); assay: ELISA; set-up: unit not given beside the values
[4] = target: T3, SARS-CoV-2 kappa variant B.1.617.1/3 RBD domain (SARS-CoV-2); assay: ELISA; set-up: unit not given beside the values
[5] = target: SARS-CoV-2 delta plus variant RBD (SARS-CoV-2); assay: ELISA; set-up: unit not given beside the values
[6] = target: SARS-CoV-2 RBD (B.1.1.7) domain (SARS-CoV-2); assay: ELISA; set-up: unit not given beside the values
[7] = target: SARS-CoV-2 RBD (B.1.351) domain (SARS-CoV-2); assay: ELISA; set-up: unit not given beside the values
[8] = target: T4, SARS-CoV-2 delta variant B.1.617.2/3 RBD domain (SARS-CoV-2); assay: ELISA; set-up: unit not given beside the values
[9] = target: SARS-CoV-2 omicron variant B.1.1.529 Spike ectodomain (tri-S, HexaPro) (SARS-CoV-2, UniProt P0DTC2 14-1208); assay: ELISA; set-up: unit not given beside the values
[10] = target: SARS-CoV-2 omicron variant B.1.1.529 RBD domain (SARS-CoV-2); assay: ELISA; set-up: unit not given beside the values
[11] = target: SARS-CoV-2 RBD (B.1.351) domain (SARS-CoV-2); assay: ELISA; set-up: unit not given beside the values; remark: listed apart in the source
[12] = target: T4, SARS-CoV-2 delta variant B.1.617.2/3 …; assay: RBD-ACE2 competition ELISA
[13] = target: SARS-CoV-2 RBD (P.1) domain (SARS-CoV-2); assay: RBD-ACE2 competition ELISA; set-up: unit not given beside the values
[14] = target: T3, SARS-CoV-2 kappa variant B.1.617.1/3 …; assay: RBD-ACE2 competition ELISA; set-up: unit not given beside the values
[15] = target: SARS-CoV-2 delta plus variant RBD (SARS-CoV-2); assay: RBD-ACE2 competition ELISA; set-up: unit not given beside the values
[16] = target: SARS-CoV-2 RBD (B.1.1.7) domain (SARS-CoV-2); assay: RBD-ACE2 competition ELISA; set-up: unit not given beside the values
[17] = target: SARS-CoV-2 RBD (B.1.351) domain (SARS-CoV-2); assay: RBD-ACE2 competition ELISA; set-up: unit not given beside the values
[18] = target: T4, SARS-CoV-2 delta variant B.1.617.2/3 …; assay: RBD-ACE2 competition ELISA; set-up: unit not given beside the values
[19] = target: SARS-CoV-2 spike, Gamma variant (P.1), on virus or pseudotyped particles (SARS-CoV-2); assay: cell-based or functional assay
[20] = target: SARS-CoV-2 spike, Beta variant (B.1.351), on virus or pseudotyped particles (SARS-CoV-2); assay: cell-based or functional assay
[21] = target: T1, SARS-CoV-2 spike, Delta variant …; assay: cell-based or functional assay; remark: listed apart in the source
[22] = target: T2, SARS-CoV-2 Spike ectodomain (tri-S), …; assay: ELISA
[23] = target: T2, SARS-CoV-2 Spike ectodomain (tri-S), …; assay: infrared immunoblot on heat-denatured tri-S

B1: Cv2.5179 (recombinant human IgG1) (antibody, V domains shown)
VH: QVQLVQSGPEVKKPGTSVKVSCKASGFTFTSSAVQWVRQARGQRLEWIGWIVVGSGNTNYAQKFQERVTITRDMSTSTAYMELSSLRSEDTAVYYCAAPHCSSTSCYDAFDIWGQGTMVTVSS
VL: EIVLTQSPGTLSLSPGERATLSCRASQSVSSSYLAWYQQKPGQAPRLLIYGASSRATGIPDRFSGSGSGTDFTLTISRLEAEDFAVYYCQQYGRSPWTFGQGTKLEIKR
notes: also called Cv2.5179 IgG
B1 was tested, and the “IC50, S-Fuse neutralisation” value [1] was 5.2 ng/mL, the “AUC (Binding)” value [2] was 12 and the “AUC (Binding)” value [3] was 11. For the same binder, the “AUC (Binding)” value [4] was 12, the “AUC (Binding)” value [5] was 12 and the “AUC (Binding)” value [6] was 11. For the same binder, the “AUC (Binding)” value [7] was 11, the “AUC (Binding)” value [8] was 12 and the AUC [9] was 3. For the same binder, the AUC [10] was 2, the AUC [11] was 12 and the “IC50 (read off the curve)” value [12] was about 0.4 µg/mL. The “AUC (Blocking)” value [13] was 50, the “AUC (Blocking)” value [14] was 114 and the “AUC (Blocking)” value [15] was 144. For the same binder, the “AUC (Blocking)” value [16] was 64, the “AUC (Blocking)” value [17] was 49 and the “AUC (Blocking)” value [18] was 115.

B2: CB6 (parental IgG1 version) (antibody, V domains shown)
VH: EVQLVESGGGLVQPGGSLRLSCAASGFTVSSNYMSWVRQAPGKGLEWVSVIYSGGSTFYADSVKGRFTISRDNSMNTLFLQMNSLRAEDTAVYYCARVLPMYGDYLDYWGQGTLVTVSS
VL: not shown
B2 was tested, and the “IC50, in vitro neutralisation” value [19] was over 25 nM and the “IC50, in vitro neutralisation” value [20] was over 25 nM.

B3: LY-CoV555 (parental IgG1 version) (antibody, V domains shown)
VH: QVQLVQSGAEVKKPGSSVKVSCKASGGTFSNYAISWVRQAPGQGLEWMGRIIPILGIANYAQKFQGRVTITADKSTSTAYMELSSLRSEDTAVYYCARGYYEARHYYYYYAMDVWGQGTAVTVSS
VL: not shown
For B3, the “IC50, in vitro neutralisation” value [19] was over 25 nM, the “IC50, in vitro neutralisation” value [20] was over 25 nM and the “IC50, in vitro neutralisation” value [21] was over 25 nM.

B4: CV2.1174 (antibody, V domains shown)
VH: EVQLVESGPEVKKPGTSVKVSCKASGFTFTRSAMQWVRQARGQRLEWIGWIVVGSGNTNYAQKFQERVTITRDMSTSTAYMELSSLRSEDTAVYYCAARQDYYYYGMDVWGQGTTVTVSS
VL: DIQMTQSPSSLSASVGDRVTITCRASQGMSNSLDWDQQKPGKAPKLLLYAASRLKSGVPSRFSGSGSGTDYTLTISSLQPEDFATYYCQQYYSDPPKTFGQGTKVEIK
B4: no binding (tested: 10 µg/ml) [22].

B5: CV2.1388 (antibody)
heavy chain: QVQLVQSGPEVKKPGTSVKVSCKASGFTFTSSAVQWVRQARGQRLEWIGWIVVGSGDTNYAQKFQERVTITRDMSTSTAYMELSSLRSEDTAVYYCATDRQAGSRTYYFPGEGWFDPWGQGTLVTVSS
light chain: QSVLTQPPSVSAAPGQKVTISCSGSTTNIGNNYVSWYQRLPGTAPKLLIYDNNKRPSGIPDRFSGSKSGTSATLGITGLQTGDEADYYCGTWDSSLSGVVFRRRDQADRPR
B5: no binding (tested: 10 µg/ml) [22].

B6: Cv2.3132 (IgG) (antibody, V domains shown)
VH: EVQLVESGGGLVKPGGSLRLSCAASGFTFSDYYMSWIRQAPGKGLEWVSYISSSGSVQYYADSVKGRFTISRDNAENSLYLQMNSLRAEDTAVYYCARYYYDSSGYWKRLDYWGQGTLVTVSS
VL: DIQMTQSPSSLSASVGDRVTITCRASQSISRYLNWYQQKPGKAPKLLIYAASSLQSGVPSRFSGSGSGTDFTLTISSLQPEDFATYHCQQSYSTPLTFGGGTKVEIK
B6: binds [23].

— patent US20240336672A1 (INSTITUT PASTEUR, published 2024)
